Test results as given in patent US20240132621A1.

Target: chitinase-3-like protein-1 (YKL-40) on human ovarian cancer cell CA5171 (human) (UniProt P36222)
Assay: flow cytometry on human ovarian cancer cell CA5171

Chain of UniProt P36222 (P36222 22-383): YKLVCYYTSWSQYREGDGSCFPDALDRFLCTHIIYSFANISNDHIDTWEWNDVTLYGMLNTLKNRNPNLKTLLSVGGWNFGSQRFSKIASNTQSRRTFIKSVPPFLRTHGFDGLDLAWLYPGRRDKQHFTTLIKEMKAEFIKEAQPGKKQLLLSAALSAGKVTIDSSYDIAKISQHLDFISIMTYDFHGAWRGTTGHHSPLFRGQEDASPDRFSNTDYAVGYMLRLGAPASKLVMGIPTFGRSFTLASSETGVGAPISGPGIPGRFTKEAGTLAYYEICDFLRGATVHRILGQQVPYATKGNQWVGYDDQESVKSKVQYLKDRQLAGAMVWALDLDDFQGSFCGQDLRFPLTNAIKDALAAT

- binding ability (percent, flow cytometry): 28.7%
Substance: control group antibody (IgG)
